Laboratory results published in article PMC5490192, “An L-threonine transaldolase is required for L-threo-β-hydroxy-α-amino acid assembly during obafluorin biosynthesis” (Nature Communications, 2017).

T1: His6-ObaG (Pseudomonas fluorescens, UniProt A0A1X9LWZ7)
T1 construct: gene obiH
T1 sequence (A0A1X9LWZ7 1-440): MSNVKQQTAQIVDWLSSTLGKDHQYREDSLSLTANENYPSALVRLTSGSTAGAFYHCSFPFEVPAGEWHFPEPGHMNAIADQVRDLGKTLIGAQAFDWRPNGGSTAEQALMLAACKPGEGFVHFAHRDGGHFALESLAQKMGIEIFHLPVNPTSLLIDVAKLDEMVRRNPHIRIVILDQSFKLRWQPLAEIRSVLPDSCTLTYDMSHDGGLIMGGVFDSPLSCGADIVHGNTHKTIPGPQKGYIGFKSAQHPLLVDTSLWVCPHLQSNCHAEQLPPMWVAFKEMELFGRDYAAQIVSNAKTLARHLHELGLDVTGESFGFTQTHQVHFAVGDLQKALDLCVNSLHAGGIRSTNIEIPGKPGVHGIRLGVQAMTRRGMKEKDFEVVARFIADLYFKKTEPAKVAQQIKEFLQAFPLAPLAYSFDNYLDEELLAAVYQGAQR

B1: His6-ObaG (Pseudomonas fluorescens) (protein)
chain: T1 sequence (A0A1X9LWZ7 1-440)

Key:
His6-ObaG = molecular target: T1, His6-ObaG; test: UV/Vis absorption spectra; NaBH4 reduction of internal aldimine; format: binding; details: covalent (internal aldimine); pH 7.8; excess PLP removed
[1] = substrate: C[C@@H](O)[C@H](N)C(=O)O; test: discontinuous HPLC L-TTA assay, Michaelis-Menten fit; format: biochemical, Pseudomonas fluorescens; details: co-substrate 4-nitrophenylacetaldehyde (10 mM in standard assay), L-threonine 1–200 mM, 25 μM enzyme, pH 7.8, 27 °C, PLP 0.4 mM, MgCl2 15 mM, NaCl 300 mM

Molecule	UV/Vis absorption spectra; NaBH4 reduction of internal aldimine (His6-ObaG)	Km [1]	kcat [1]
Cc1ncc(COP(=O)(O)O)c(C=O)c1O [pyridoxal-5′-phosphate]	these results strongly support ObaG being a PLP-dependent enzyme		
B1		40.2 ± 3.8 mM	1.05 ± 0.0317 s⁻¹
